Experimental data: the supplement of paper PMC10567573

B1: BTBD10 (parent)
chain: FVYENAKEGARNIRTSERVTLIVD

Variants of: B1
Assay: protein stability index of a GFP-peptide fusion (GPS, HEK-293T) (PSI 1-6); higher = more stable
Settings: c terminus: a fixed tail appended
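Also: lentivirally expressed fusions sorted by FACS into six bins by GFP to DsRed ratio, PSI derived from sequencing read proportions per bin multiplied by bin number.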

Variant	protein stability index
FVYENAKEGAYNIRTSERVTLIVD [R11Y]	1.59
FVYENAKEGANNIRTSERVTLIVD [R11N]	1.83
FVYENAKEGAPNIRTSERVTLIVD [R11P]	1.84
FVYENAKEGAMNIRTSERVTLIVD [R11M]	1.59
FVYENAKEGACNIRTSERVTLIVD [R11C]	2.07
FVYENAKEGATNIRTSERVTLIVD [R11T]	2.19
FVYENAKEGALNIRTSERVTLIVD [R11L]	2.67
FVYENAKEGAENIRTSERVTLIVD [R11E]	3.09
FVYENAKEGAANIRTSERVTLIVD [R11A]	2.29
FVYENAKEGAINIRTSERVTLIVD [R11I]	1.75
FVYENAKEGAHNIRTSERVTLIVD [R11H]	2.16
FVYENAKEGAFNIRTSERVTLIVD [R11F]	2.38
FVYENAKEGAVNIRTSERVTLIVD [R11V]	2.3
FVYENAKEGAKNIRTSERVTLIVD [R11K]	1.9
FVYENAKEGAGNIRTSERVTLIVD [R11G]	2.31
FVYENAKEGADNIRTSERVTLIVD [R11D]	2.82
FVYENAKEGASNIRTSERVTLIVD [R11S]	2.18
FVYENAKEGAQNIRTSERVTLIVD [R11Q]	2.16
FVYENAKEGARFIRTSERVTLIVD [N12F]	2.65
FVYENAKEGAREIRTSERVTLIVD [N12E]	2.08
FVYENAKEGARWIRTSERVTLIVD [N12W]	3.12
FVYENAKEGARGIRTSERVTLIVD [N12G]	1.98
FVYENAKEGARKIRTSERVTLIVD [N12K]	2.19
FVYENAKEGARCIRTSERVTLIVD [N12C]	1.51

Variant	protein stability index
FVYENAKEGARRIRTSERVTLIVD [N12R]	1.96
FVYENAKEGARSIRTSERVTLIVD [N12S]	1.97
FVYENAKEGARVIRTSERVTLIVD [N12V]	1.17
FVYENAKEGARLIRTSERVTLIVD [N12L]	1.34
FVYENAKEGARPIRTSERVTLIVD [N12P]	2.65
FVYENAKEGARYIRTSERVTLIVD [N12Y]	2.61
FVYENAKEGARMIRTSERVTLIVD [N12M]	1.56
FVYENAKEGARQIRTSERVTLIVD [N12Q]	1.7
FVYENAKEGARIIRTSERVTLIVD [N12I]	1.84
FVYENAKEGARDIRTSERVTLIVD [N12D]	1.93
FVYENAKEGARAIRTSERVTLIVD [N12A]	1.82
FVYENAKEGARTIRTSERVTLIVD [N12T]	1.93
FVYENAKEGARHIRTSERVTLIVD [N12H]	1.5
FVYENAKEIARNIRTSERVTLIVD [G9I]	1.74
FVYENAKECARNIRTSERVTLIVD [G9C]	1.83
FVYENAKEHARNIRTSERVTLIVD [G9H]	1.72
FVYENAKEKARNIRTSERVTLIVD [G9K]	1.7
FVYENAKEEARNIRTSERVTLIVD [G9E]	2.33
FVYENAKELARNIRTSERVTLIVD [G9L]	2.12
FVYENAKEDARNIRTSERVTLIVD [G9D]	2.49
FVYENAKERARNIRTSERVTLIVD [G9R]	2.17
FVYENAKEQARNIRTSERVTLIVD [G9Q]	2.09
FVYENAKETARNIRTSERVTLIVD [G9T]	2.09
FVYENAKESARNIRTSERVTLIVD [G9S]	1.8

Variant	protein stability index
FVYENAKEMARNIRTSERVTLIVD [G9M]	2.47
FVYENAKEFARNIRTSERVTLIVD [G9F]	2.31
FVYENAKEYARNIRTSERVTLIVD [G9Y]	1.41
FVYENAKEAARNIRTSERVTLIVD [G9A]	1.85
FVYENAKEVARNIRTSERVTLIVD [G9V]	1.77
FVYENAKENARNIRTSERVTLIVD [G9N]	2.15
FVYENAKEPARNIRTSERVTLIVD [G9P]	2.02
FVYENAKEGARNCRTSERVTLIVD [I13C]	1.8
FVYENAKEGARNFRTSERVTLIVD [I13F]	2.43
FVYENAKEGARNGRTSERVTLIVD [I13G]	2.31
FVYENAKEGARNERTSERVTLIVD [I13E]	2.34
FVYENAKEGARNARTSERVTLIVD [I13A]	1.77
FVYENAKEGARNDRTSERVTLIVD [I13D]	2.52
FVYENAKVGARNIRTSERVTLIVD [E8V]	1.47
FVYENAKMGARNIRTSERVTLIVD [E8M]	2.11
FVYENAKPGARNIRTSERVTLIVD [E8P]	2.44
FVYENAKHGARNIRTSERVTLIVD [E8H]	2.25
FVYENAKRGARNIRTSERVTLIVD [E8R]	2.83
FVYENAKSGARNIRTSERVTLIVD [E8S]	1.72
FVYENAKWGARNIRTSERVTLIVD [E8W]	2.04
FVYENAKYGARNIRTSERVTLIVD [E8Y]	1.94
FVYENAKTGARNIRTSERVTLIVD [E8T]	2.11
FVYENAKQGARNIRTSERVTLIVD [E8Q]	1.8
FVYENAKKGARNIRTSERVTLIVD [E8K]	1.93

Variant	protein stability index
FVYENAKIGARNIRTSERVTLIVD [E8I]	1.87
FVYENAKNGARNIRTSERVTLIVD [E8N]	1.81
FVYENAKLGARNIRTSERVTLIVD [E8L]	2.29
FVYENAKEGGRNIRTSERVTLIVD [A10G]	2.08
FVYENAKEGQRNIRTSERVTLIVD [A10Q]	2.05
FVYENAKEGNRNIRTSERVTLIVD [A10N]	2.16
FVYENAKEGERNIRTSERVTLIVD [A10E]	2.79
FVYENAKEGIRNIRTSERVTLIVD [A10I]	2
FVYENAKEGKRNIRTSERVTLIVD [A10K]	2.32
FVYENAKEGCRNIRTSERVTLIVD [A10C]	1.84
FVYENAKEGLRNIRTSERVTLIVD [A10L]	1.89
FVYENAKEGPRNIRTSERVTLIVD [A10P]	2.7
FVYENAKEGMRNIRTSERVTLIVD [A10M]	1.62
FVYENAKEGWRNIRTSERVTLIVD [A10W]	2.32
FVYENAKEGVRNIRTSERVTLIVD [A10V]	2.1
FVYENAKEGDRNIRTSERVTLIVD [A10D]	2.26
FVYENAKEGRRNIRTSERVTLIVD [A10R]	2.2
FVYENAKEGYRNIRTSERVTLIVD [A10Y]	1.86
FVYENAKEGSRNIRTSERVTLIVD [A10S]	2.01
FVYENAKEGFRNIRTSERVTLIVD [A10F]	2.18
FVYENAKEGHRNIRTSERVTLIVD [A10H]	1.58
FVYENAKEGTRNIRTSERVTLIVD [A10T]	2.03
